The target of experiment [1] is T1, B7H3-Fc recombinant protein (human, UniProt Q5ZPR3 29-461).
T1 construct: also called human B7H3 protein; not shown: Fc part of the B7H3-Fc recombinant protein
T1 sequence (looked up): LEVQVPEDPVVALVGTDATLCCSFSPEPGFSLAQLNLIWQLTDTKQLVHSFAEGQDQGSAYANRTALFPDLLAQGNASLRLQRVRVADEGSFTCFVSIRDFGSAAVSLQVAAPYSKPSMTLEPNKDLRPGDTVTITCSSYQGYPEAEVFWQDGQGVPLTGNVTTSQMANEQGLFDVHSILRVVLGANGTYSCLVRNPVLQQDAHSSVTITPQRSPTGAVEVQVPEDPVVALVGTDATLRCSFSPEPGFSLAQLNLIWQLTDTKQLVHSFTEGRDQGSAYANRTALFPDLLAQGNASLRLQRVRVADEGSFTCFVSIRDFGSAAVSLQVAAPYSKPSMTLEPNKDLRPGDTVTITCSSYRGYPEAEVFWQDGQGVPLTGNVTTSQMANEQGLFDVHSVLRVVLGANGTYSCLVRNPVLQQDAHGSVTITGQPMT
In words: SPR, Biacore 8K, CM5 chip. As to the method: The mouse anti-human IgG (Fc) antibody was diluted with the immobilization reagent (sodium acetate, pH 5.0): 950 μL of the immobilization reagent was added to 50 μL of the mouse anti-human IgG (Fc) antibody. The dilution was used for immobilization in eight channels. First, the surface of the CM5 chip was activated for 360 s with EDC and NHS at a flow rate of 10 μL/min. Then, the mouse anti-human IgG (Fc) antibody was injected into the channels (channels 1-8, Fc1,2) at a flow rate of 10 μL/min for about 360 s, with the level of immobilization at about 7000 to 14,000 RU. Finally, the chip was blocked with ethanolamine at 10 μL/min for 420 s.
The human B7H3 protein was diluted 2-fold with the running reagent. The diluted human B7H3 protein was injected into the experimental channels and the reference channels in sequence at a flow rate of 30 μL/min, and corresponding periods of association and dissociation were allowed. The association and dissociation steps were all performed in the running reagent. After each concentration analysis, the chip needed to be regenerated with magnesium chloride at a flow rate of 20 μL/min for 30 s to wash away the ligand and undissociated analyte. For the next concentration analysis, the experimental channels needed to recapture the same amount of ligand.
A KD value was calculated for each sample using Biacore 8K analysis software Biacore Insight Evaluation Software. The reference channels (Fc1) were used for background subtraction.

Experiment [2] deals with T2, B7H3 on U251 cells (UniProt Q5ZPR3 29-534, limits assumed).
T2 construct: whole, on cells; also called U251 cells (expressing B7H3)
T2 sequence (looked up): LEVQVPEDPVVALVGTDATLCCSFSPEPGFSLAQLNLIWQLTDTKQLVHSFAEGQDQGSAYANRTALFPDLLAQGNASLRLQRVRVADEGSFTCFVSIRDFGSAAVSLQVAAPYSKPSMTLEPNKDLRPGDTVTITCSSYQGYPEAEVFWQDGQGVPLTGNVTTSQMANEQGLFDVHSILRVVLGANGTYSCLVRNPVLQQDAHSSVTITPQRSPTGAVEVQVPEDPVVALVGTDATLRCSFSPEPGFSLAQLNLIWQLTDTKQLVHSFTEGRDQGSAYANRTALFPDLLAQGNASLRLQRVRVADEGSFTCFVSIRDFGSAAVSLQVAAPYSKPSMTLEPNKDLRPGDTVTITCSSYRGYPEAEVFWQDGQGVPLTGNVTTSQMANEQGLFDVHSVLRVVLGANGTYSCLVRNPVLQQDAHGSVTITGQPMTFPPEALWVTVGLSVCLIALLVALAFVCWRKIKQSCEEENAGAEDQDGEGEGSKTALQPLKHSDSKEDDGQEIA
In words: flow cytometry on U251 cells (expressing B7H3), MFI against antibody concentration. As to the method:
Recombinant antibodies with different concentrations were incubated with U251 cells (expressing B7H3), and the binding of the antibodies to the cell surface was assayed by the mean fluorescence intensity (MFI) of the cells. From the results shown in FIG. 2, the 1A5 and 1G7 antibodies and the humanized antibodies thereof can effectively bind to the surface of the U251 cells.
In general terms: Flow cytometry measures light scatter and fluorescence of single cells or particles in a stream.

Changes are numbered by the printed parent chain.

B1: B7H3 single-domain antibody 1A5 (VHH)
VHH: QAQLVESGGGLVQTGGSLRLSCAASGRIFSNYSVGWFRQAPGKEREFVAAIIWSTGTTNLADPMKGRFTISRDNAKNTVVLQMNSLKPEDTAIYYCAASFKYSGIYGREADFGSWGQGTQVTVSS
notes: Called a single-domain antibody / recombinant antibody; also called 1A5 antibody; anti-B7H3 VHH antibody
As for B1, in experiment [1], the Kd was found to be 7.39 nM, the koff was determined as 0.0045 s⁻¹ and the kon was 609000 M⁻¹ s⁻¹. In addition, the binding result in experiment [2] is “binds”.

B2: B7H3 single-domain antibody 1G7 (VHH)
VHH: AVQLVESGGGLVQTGGSLRLSCADSGRIFSNYAMGWFRQAPGKEREFVAAIIGSTGTVNYADSMKGRFTISRDNAKNTVVLQMNSLKPEDTAIYYCAASFRYSGIYGREADFVSWGQGTQVTVSS
notes: Called a single-domain antibody / recombinant antibody; also called 1G7 antibody; anti-B7H3 VHH antibody
Turning to B2, in experiment [1], the dissociation constant (Kd) came out at 5.38 nM, the off-rate (koff) is 0.00618 s⁻¹ and the kon stood at 1.15e+06 M⁻¹ s⁻¹. The concentration giving a half-maximal response (EC50 (read off the curve)) in experiment [2] is approximately 4 µg/mL.

B3: hu1A5 (VHH)
VHH: QVQLVESGGGLVQPGGSLRLSCAASGRIFSNYSVGWFRQAPGKEREFVAAIIWSTGTTYYADSVKGRFTISRDNSKNTLYLQMNSLRAEDTAVYYCAASFKYSGIYGREADFGSWGQGTLVTVSS
notes: a member of the group m3 (humanized antibodies of 1A5 and 1G7); also called humanized antibody of 1A5
Consider B3, for which the binding result in experiment [2] is given as “binds”.

B4: hu1G7 (VHH)
VHH: B3 VHH with Q1A, S33A, V34M, W53G, T58V, K101R, G113V
notes: a member of the group m3 (humanized antibodies of 1A5 and 1G7); also called humanized antibody of 1G7
As for B4, in experiment [2], the binding result was “binds”.

The Kd is a measure of binding affinity in units of concentration. For orientation: koff means a measure of how fast the partners let go of each other. As usually defined, the kon is the rate constant with which the complex forms. The EC50 (read off the curve) is the concentration that produces a half-maximal response. The low end stands for a more potent agent, the high end for a less potent agent.
